Legend:
IL-11 protein [1] = target: T1, IL-11 protein (UniProt P20809 22-199, limits assumed); assay: ELISA, monoclonal hybridoma supernatant on IL-11
T1 construct: also called IL-11 antigen
T1 sequence (looked up): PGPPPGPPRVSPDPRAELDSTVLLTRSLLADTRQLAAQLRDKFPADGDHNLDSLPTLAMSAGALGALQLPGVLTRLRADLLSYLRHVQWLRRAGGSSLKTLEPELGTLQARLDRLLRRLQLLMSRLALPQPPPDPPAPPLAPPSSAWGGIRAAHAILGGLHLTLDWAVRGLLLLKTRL
Source text: (§1) Cell lines with high secretion of specific antibody were selected for expanded culture and cryopreservation.

IL-11-Fc protein = target: T2, IL-11-Fc protein (UniProt P20809 22-199, limits assumed); assay: flow competition: IL-11-Fc + antibody gradient on membrane-IL-11R CHO cells; 3-6A4 antibody
T2 construct: also called IL-11 recombinant protein with Fc tag; not shown: Fc tag
T2 sequence (looked up): T1 sequence (looked up)
Source text: The secondary antibody used in the detection was a secondary antibody conjugated with a FITC fluorophore (Goat-anti-Fc-FITC) (Abcam, ab98529).

[2] = target: T3, recombinant IL-11 (LSBio, LS-G132887-10) (UniProt P20809 22-199); assay: ELISA, cytokine coated
T3 construct: also called IL-11 cytokine
T3 sequence (looked up): T1 sequence (looked up)

[3] = target: T4, recombinant OSM (Genscript-z03132) (UniProt P13725 26-234, limits assumed); assay: ELISA, cytokine coated
T4 sequence (looked up): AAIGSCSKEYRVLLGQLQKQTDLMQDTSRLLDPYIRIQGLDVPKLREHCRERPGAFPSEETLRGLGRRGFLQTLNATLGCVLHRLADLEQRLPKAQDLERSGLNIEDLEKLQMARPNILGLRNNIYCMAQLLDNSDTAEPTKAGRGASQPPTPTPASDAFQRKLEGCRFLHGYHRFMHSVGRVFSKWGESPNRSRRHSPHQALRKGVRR

[4] = target: T5, recombinant CNTF (R&D systems, 257-NT-010) (UniProt P26441 2-200); assay: ELISA, cytokine coated
T5 sequence (looked up): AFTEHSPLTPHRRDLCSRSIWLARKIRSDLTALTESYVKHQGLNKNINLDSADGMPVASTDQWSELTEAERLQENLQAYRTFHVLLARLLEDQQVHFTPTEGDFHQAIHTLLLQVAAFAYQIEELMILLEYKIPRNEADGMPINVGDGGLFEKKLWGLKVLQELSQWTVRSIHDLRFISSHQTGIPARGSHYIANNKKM

[5] = target: T6, recombinant LIF (Peprotech, 300-05) (UniProt P15018 23-202); assay: ELISA, cytokine coated
T6 sequence (P15018 23-202 limits assumed): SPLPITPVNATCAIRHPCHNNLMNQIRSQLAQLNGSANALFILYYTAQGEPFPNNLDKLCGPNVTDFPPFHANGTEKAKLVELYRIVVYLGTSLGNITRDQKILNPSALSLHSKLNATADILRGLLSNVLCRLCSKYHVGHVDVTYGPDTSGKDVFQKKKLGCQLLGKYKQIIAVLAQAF

[6] = target: T7, recombinant CLC (R&D systems, 962-CL-050) (UniProt Q9UBD9 28-225); assay: ELISA, cytokine coated
T7 sequence (looked up): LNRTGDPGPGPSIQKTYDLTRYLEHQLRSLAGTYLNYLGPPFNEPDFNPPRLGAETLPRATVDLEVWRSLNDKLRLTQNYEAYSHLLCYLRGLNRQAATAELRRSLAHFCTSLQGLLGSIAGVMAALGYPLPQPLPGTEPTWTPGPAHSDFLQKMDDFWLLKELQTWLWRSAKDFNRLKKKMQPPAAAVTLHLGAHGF

[7] = target: T8, recombinant CT-1 (R&D systems, 612-CD-010) (UniProt Q16619 2-201, limits assumed); assay: ELISA, cytokine coated
T8 sequence (looked up): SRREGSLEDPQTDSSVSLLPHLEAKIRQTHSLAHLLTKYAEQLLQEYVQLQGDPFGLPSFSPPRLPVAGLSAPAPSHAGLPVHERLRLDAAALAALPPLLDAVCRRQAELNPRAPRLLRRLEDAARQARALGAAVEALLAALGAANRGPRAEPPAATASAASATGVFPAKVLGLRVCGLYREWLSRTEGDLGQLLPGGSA

[8] = target: T9, recombinant IL-27 (R&D systems, 2526-IL-010) (UniProt Q8NEV9 29-243; Q14213 21-229); assay: ELISA, cytokine coated
T9 sequence (looked up) 1: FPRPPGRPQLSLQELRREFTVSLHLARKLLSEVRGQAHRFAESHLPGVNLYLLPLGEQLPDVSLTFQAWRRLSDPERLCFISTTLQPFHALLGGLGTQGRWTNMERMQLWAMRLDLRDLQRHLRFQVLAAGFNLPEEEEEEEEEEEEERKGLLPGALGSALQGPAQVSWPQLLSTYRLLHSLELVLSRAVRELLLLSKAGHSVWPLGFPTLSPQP
T9 sequence (looked up) 2: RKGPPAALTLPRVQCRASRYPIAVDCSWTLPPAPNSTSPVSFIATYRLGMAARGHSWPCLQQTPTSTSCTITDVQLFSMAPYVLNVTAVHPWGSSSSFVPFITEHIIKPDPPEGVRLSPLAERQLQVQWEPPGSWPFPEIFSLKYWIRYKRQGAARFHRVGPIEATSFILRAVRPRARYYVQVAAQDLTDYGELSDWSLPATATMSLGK

[9] = target: T10, recombinant IL-31 (Peprotech, 200-31) (UniProt Q6EBC2 24-164); assay: ELISA, cytokine coated
T10 sequence (looked up): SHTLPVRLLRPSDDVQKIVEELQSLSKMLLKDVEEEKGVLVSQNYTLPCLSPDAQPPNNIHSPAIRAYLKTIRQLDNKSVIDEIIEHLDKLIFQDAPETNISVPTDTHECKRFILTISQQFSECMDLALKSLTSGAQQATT

[10] = target: T11, recombinant IL-6 (Sinobiological-10395-HNAE) (UniProt P05231 30-212); assay: ELISA, cytokine coated
[11] = target: T4, recombinant OSM (Genscript-z03132); assay: ELISA, cytokine coated; remark: listed apart in the source
[12] = target: T5, recombinant CNTF (R&D systems, …); assay: ELISA, cytokine coated; remark: listed apart in the source
[13] = target: T6, recombinant LIF (Peprotech, 300-05); assay: ELISA, cytokine coated; remark: listed apart in the source
[14] = target: T7, recombinant CLC (R&D systems, …); assay: ELISA, cytokine coated; remark: listed apart in the source
[15] = target: T8, recombinant CT-1 (R&D systems, …); assay: ELISA, cytokine coated; remark: listed apart in the source
[16] = target: T9, recombinant IL-27 (R&D systems, …); assay: ELISA, cytokine coated; remark: listed apart in the source
[17] = target: T10, recombinant IL-31 (Peprotech, 200-31); assay: ELISA, cytokine coated; remark: listed apart in the source
[18] = target: T11, recombinant IL-6 …; assay: ELISA, cytokine coated; remark: listed apart in the source
[19] = target: T12, recombinant human protein antigen hu-IL-11-His tag (human, UniProt P20809 22-199); assay: BLI, IL-11 (His tag) on Ni-NTA sensor, antibody as analyte
T12 construct: Expressed in CHO, Ni column and Superdex75; not shown: His tag
T12 sequence (looked up): T1 sequence (looked up)
Experimental: Bio-Layer Interferometry (BLI) was used for binding affinity determination. […] The analytes were diluted in 7 concentration gradients, the binding time was 60 s and the dissociation time was 1000 s. The buffer was 20 mM PBS, 0.15M NaCl, 0.1% BSA, 0.05% Tween 20, pH 7.

IL-11 protein [20] = target: T1, IL-11 protein; assay: flow competition: IL-11 + antibody on IL-11R cells; lower = more blocking
Source text: as §1

- OD450 (IL-11 protein [1]): 1.58
- IC50 (IL-11-Fc protein): ~7 µg/mL
- OD450 nm [2]: 1.88
- OD450 nm [3]: 0.102
- OD450 nm [4]: 0.064
- OD450 nm [5]: 0.084
- OD450 nm [6]: 0.042
- OD450 nm [7]: 0.041
- OD450 nm [8]: 0.035
- OD450 nm [9]: 0.088
- OD450 nm [10]: 0.039
- binding result [11]: no binding
- binding result [12]: no binding
- binding result [13]: no binding
- binding result [14]: no binding
- binding result [15]: no binding
- binding result [16]: no binding
- binding result [17]: no binding
- binding result [18]: no binding
- Kd [19]: 39.3 pM
- koff [19]: 4.16e-05 s⁻¹
- kon [19]: 1.06e+06 M⁻¹ s⁻¹
- FITC Mean (IL-11 protein [20]): 3040
B1: 3-6A4 (antibody, human IgG1, kappa, V domains shown)
VH: QIQLVQSGPELKKPGETVKISCKASGYTFTTNGINWVKQAAGKGLKWMGWINTNTGEPTNAEELKGRFAFSLETSASTAYLQINNLKNEDAAIYFCAREGAFGLDYWGQGTSVTVSS
VL: SIVMTQSPKFLLVSAGDRVIITCKASQSVSNDVVWYQQKPGQSPKLLIYYGSHRNTGVPTRFTGSGYGTDFTFTISTVQAEDLAVYFCQQDFFSPWTFGGGTKLEIKR
notes: also called 3-6A4 antibody; 3-6A4 mAb

Source: patent US20230257458A1 (SUNSHINE LAKE PHARMA, published 2023)
